# Laboratory results published in the RNAGym collection of RNA variant scans (doi:10.1021/acssynbio.7b00057).
# B1: Pistol ribozyme (parent)
# chain: GGGUCGUUGUUCCAUAAUCGCGUGGAUAUGGCACGCAAGUUUCUACCGGGCACCGUAAAUGUCCGACUGGAGCCGUUCGGGCGGCUAUAAACAGACCUCAGGCCCGAAGCGUGGCGGCACCUGCCGCCGGUGGUAAAAAAGAUCGGAAGAGCACACGUCU
# Variants of: B1
# Experiment: aptazyme ON/OFF ratio, guanine; higher = stronger switching; co-transcriptional cleavage with and without guanine
row,Variant,aptazyme ON/OFF ratio
1,GGGUCGAUAGAAGAUAAUCGCGUGGAUAUGGCACGCAAGUUUCUACCGGGCACCGUAAAUGUCCGACUGGAGCCGUUCGGGCGGCUAUAAACAGACCUCAGGCCCGAAGCGUGGCGGCACCUGCCGCCGGUGGUAAAAAAGAUCGGAAGAGCACACGUCU,1.15
2,GGGUCGAUAGAAAAUAAUCGCGUGGAUAUGGCACGCAAGUUUCUACCGGGCACCGUAAAUGUCCGACUGGAGCCGUUCGGGCGGCUAUAAACAGACCUCAGGCCCGAAGCGUGGCGGCACCUGCCGCCGGUGGUAAAAAAGAUCGGAAGAGCACACGUCU,1.11
3,GGGUCGAUAGAAUAUAAUCGCGUGGAUAUGGCACGCAAGUUUCUACCGGGCACCGUAAAUGUCCGACUGGAGCCGUUCGGGCGGCUAUAAACAGACCUCAGGCCCGAAGCGUGGCGGCACCUGCCGCCGGUGGUAAAAAAGAUCGGAAGAGCACACGUCU,1.21
4,GGGUCGAUAGAUGAUAAUCGCGUGGAUAUGGCACGCAAGUUUCUACCGGGCACCGUAAAUGUCCGACUGGAGCCGUUCGGGCGGCUAUAAACAGACCUCAGGCCCGAAGCGUGGCGGCACCUGCCGCCGGUGGUAAAAAAGAUCGGAAGAGCACACGUCU,1.06
5,GGGUCGAUAGAUUAUAAUCGCGUGGAUAUGGCACGCAAGUUUCUACCGGGCACCGUAAAUGUCCGACUGGAGCCGUUCGGGCGGCUAUAAACAGACCUCAGGCCCGAAGCGUGGCGGCACCUGCCGCCGGUGGUAAAAAAGAUCGGAAGAGCACACGUCU,1.17
6,GGGUCGAUAGAUAAUAAUCGCGUGGAUAUGGCACGCAAGUUUCUACCGGGCACCGUAAAUGUCCGACUGGAGCCGUUCGGGCGGCUAUAAACAGACCUCAGGCCCGAAGCGUGGCGGCACCUGCCGCCGGUGGUAAAAAAGAUCGGAAGAGCACACGUCU,1.09
7,GGGUCGAUAGACAAUAAUCGCGUGGAUAUGGCACGCAAGUUUCUACCGGGCACCGUAAAUGUCCGACUGGAGCCGUUCGGGCGGCUAUAAACAGACCUCAGGCCCGAAGCGUGGCGGCACCUGCCGCCGGUGGUAAAAAAGAUCGGAAGAGCACACGUCU,1.09
8,GGGUCGAUAGACGAUAAUCGCGUGGAUAUGGCACGCAAGUUUCUACCGGGCACCGUAAAUGUCCGACUGGAGCCGUUCGGGCGGCUAUAAACAGACCUCAGGCCCGAAGCGUGGCGGCACCUGCCGCCGGUGGUAAAAAAGAUCGGAAGAGCACACGUCU,1.03
9,GGGUCGAUAGACUAUAAUCGCGUGGAUAUGGCACGCAAGUUUCUACCGGGCACCGUAAAUGUCCGACUGGAGCCGUUCGGGCGGCUAUAAACAGACCUCAGGCCCGAAGCGUGGCGGCACCUGCCGCCGGUGGUAAAAAAGAUCGGAAGAGCACACGUCU,1.06
10,GGGUCGAUAGCAGAUAAUCGCGUGGAUAUGGCACGCAAGUUUCUACCGGGCACCGUAAAUGUCCGACUGGAGCCGUUCGGGCGGCUAUAAACAGACCUCAGGCCCGAAGCGUGGCGGCACCUGCCGCCGGUGGUAAAAAAGAUCGGAAGAGCACACGUCU,1.14
11,GGGUCGAUAGCAUAUAAUCGCGUGGAUAUGGCACGCAAGUUUCUACCGGGCACCGUAAAUGUCCGACUGGAGCCGUUCGGGCGGCUAUAAACAGACCUCAGGCCCGAAGCGUGGCGGCACCUGCCGCCGGUGGUAAAAAAGAUCGGAAGAGCACACGUCU,1.11
12,GGGUCGAUAGCAAAUAAUCGCGUGGAUAUGGCACGCAAGUUUCUACCGGGCACCGUAAAUGUCCGACUGGAGCCGUUCGGGCGGCUAUAAACAGACCUCAGGCCCGAAGCGUGGCGGCACCUGCCGCCGGUGGUAAAAAAGAUCGGAAGAGCACACGUCU,1.16
13,GGGUCGAUAGUCUAUAAUCGCGUGGAUAUGGCACGCAAGUUUCUACCGGGCACCGUAAAUGUCCGACUGGAGCCGUUCGGGCGGCUAUAAACAGACCUCAGGCCCGAAGCGUGGCGGCACCUGCCGCCGGUGGUAAAAAAGAUCGGAAGAGCACACGUCU,1.28
14,GGGUCGAUAGUCAAUAAUCGCGUGGAUAUGGCACGCAAGUUUCUACCGGGCACCGUAAAUGUCCGACUGGAGCCGUUCGGGCGGCUAUAAACAGACCUCAGGCCCGAAGCGUGGCGGCACCUGCCGCCGGUGGUAAAAAAGAUCGGAAGAGCACACGUCU,1.29
15,GGGUCGAUAGUCGAUAAUCGCGUGGAUAUGGCACGCAAGUUUCUACCGGGCACCGUAAAUGUCCGACUGGAGCCGUUCGGGCGGCUAUAAACAGACCUCAGGCCCGAAGCGUGGCGGCACCUGCCGCCGGUGGUAAAAAAGAUCGGAAGAGCACACGUCU,1.17
16,GGGUCGAUAGAGGAUAAUCGCGUGGAUAUGGCACGCAAGUUUCUACCGGGCACCGUAAAUGUCCGACUGGAGCCGUUCGGGCGGCUAUAAACAGACCUCAGGCCCGAAGCGUGGCGGCACCUGCCGCCGGUGGUAAAAAAGAUCGGAAGAGCACACGUCU,1.31
17,GGGUCGAUAGAGAAUAAUCGCGUGGAUAUGGCACGCAAGUUUCUACCGGGCACCGUAAAUGUCCGACUGGAGCCGUUCGGGCGGCUAUAAACAGACCUCAGGCCCGAAGCGUGGCGGCACCUGCCGCCGGUGGUAAAAAAGAUCGGAAGAGCACACGUCU,1.12
18,GGGUCGAUAGAGUAUAAUCGCGUGGAUAUGGCACGCAAGUUUCUACCGGGCACCGUAAAUGUCCGACUGGAGCCGUUCGGGCGGCUAUAAACAGACCUCAGGCCCGAAGCGUGGCGGCACCUGCCGCCGGUGGUAAAAAAGAUCGGAAGAGCACACGUCU,1.17

row,Variant,aptazyme ON/OFF ratio
1,GGGUCGAUAGCUCAUAAUCGCGUGGAUAUGGCACGCAAGUUUCUACCGGGCACCGUAAAUGUCCGACUGGAGCCGUUCGGGCGGCUAUAAACAGACCUCAGGCCCGAAGCGUGGCGGCACCUGCCGCCGGUGGUAAAAAAGAUCGGAAGAGCACACGUCU,1.08
2,GGGUCGAUAGCGCAUAAUCGCGUGGAUAUGGCACGCAAGUUUCUACCGGGCACCGUAAAUGUCCGACUGGAGCCGUUCGGGCGGCUAUAAACAGACCUCAGGCCCGAAGCGUGGCGGCACCUGCCGCCGGUGGUAAAAAAGAUCGGAAGAGCACACGUCU,1.08
3,GGGUCGAUAGCACAUAAUCGCGUGGAUAUGGCACGCAAGUUUCUACCGGGCACCGUAAAUGUCCGACUGGAGCCGUUCGGGCGGCUAUAAACAGACCUCAGGCCCGAAGCGUGGCGGCACCUGCCGCCGGUGGUAAAAAAGAUCGGAAGAGCACACGUCU,1.21
4,GGGUCGAUAGAUCAUAAUCGCGUGGAUAUGGCACGCAAGUUUCUACCGGGCACCGUAAAUGUCCGACUGGAGCCGUUCGGGCGGCUAUAAACAGACCUCAGGCCCGAAGCGUGGCGGCACCUGCCGCCGGUGGUAAAAAAGAUCGGAAGAGCACACGUCU,1.05
5,GGGUCGAUAGAGCAUAAUCGCGUGGAUAUGGCACGCAAGUUUCUACCGGGCACCGUAAAUGUCCGACUGGAGCCGUUCGGGCGGCUAUAAACAGACCUCAGGCCCGAAGCGUGGCGGCACCUGCCGCCGGUGGUAAAAAAGAUCGGAAGAGCACACGUCU,1.12
6,GGGUCGAUAGAACAUAAUCGCGUGGAUAUGGCACGCAAGUUUCUACCGGGCACCGUAAAUGUCCGACUGGAGCCGUUCGGGCGGCUAUAAACAGACCUCAGGCCCGAAGCGUGGCGGCACCUGCCGCCGGUGGUAAAAAAGAUCGGAAGAGCACACGUCU,1.17
7,GGGUCGAUAGCUAAUAAUCGCGUGGAUAUGGCACGCAAGUUUCUACCGGGCACCGUAAAUGUCCGACUGGAGCCGUUCGGGCGGCUAUAAACAGACCUCAGGCCCGAAGCGUGGCGGCACCUGCCGCCGGUGGUAAAAAAGAUCGGAAGAGCACACGUCU,1.2
8,GGGUCGAUAGUUCAUAAUCGCGUGGAUAUGGCACGCAAGUUUCUACCGGGCACCGUAAAUGUCCGACUGGAGCCGUUCGGGCGGCUAUAAACAGACCUCAGGCCCGAAGCGUGGCGGCACCUGCCGCCGGUGGUAAAAAAGAUCGGAAGAGCACACGUCU,1.41
9,GGGUCGAUAGUUUAUAAUCGCGUGGAUAUGGCACGCAAGUUUCUACCGGGCACCGUAAAUGUCCGACUGGAGCCGUUCGGGCGGCUAUAAACAGACCUCAGGCCCGAAGCGUGGCGGCACCUGCCGCCGGUGGUAAAAAAGAUCGGAAGAGCACACGUCU,1.32
10,GGGUCGAUAGUUAAUAAUCGCGUGGAUAUGGCACGCAAGUUUCUACCGGGCACCGUAAAUGUCCGACUGGAGCCGUUCGGGCGGCUAUAAACAGACCUCAGGCCCGAAGCGUGGCGGCACCUGCCGCCGGUGGUAAAAAAGAUCGGAAGAGCACACGUCU,1.06
11,GGGUCGAUAGUUGAUAAUCGCGUGGAUAUGGCACGCAAGUUUCUACCGGGCACCGUAAAUGUCCGACUGGAGCCGUUCGGGCGGCUAUAAACAGACCUCAGGCCCGAAGCGUGGCGGCACCUGCCGCCGGUGGUAAAAAAGAUCGGAAGAGCACACGUCU,1.14
12,GGGUCGAUAGUGUAUAAUCGCGUGGAUAUGGCACGCAAGUUUCUACCGGGCACCGUAAAUGUCCGACUGGAGCCGUUCGGGCGGCUAUAAACAGACCUCAGGCCCGAAGCGUGGCGGCACCUGCCGCCGGUGGUAAAAAAGAUCGGAAGAGCACACGUCU,1.18
13,GGGUCGAUAGUGGAUAAUCGCGUGGAUAUGGCACGCAAGUUUCUACCGGGCACCGUAAAUGUCCGACUGGAGCCGUUCGGGCGGCUAUAAACAGACCUCAGGCCCGAAGCGUGGCGGCACCUGCCGCCGGUGGUAAAAAAGAUCGGAAGAGCACACGUCU,1.11
14,GGGUCGAUAGACCAUAAUCGCGUGGAUAUGGCACGCAAGUUUCUACCGGGCACCGUAAAUGUCCGACUGGAGCCGUUCGGGCGGCUAUAAACAGACCUCAGGCCCGAAGCGUGGCGGCACCUGCCGCCGGUGGUAAAAAAGAUCGGAAGAGCACACGUCU,1.06
15,GGGUCGAUAGCCCAUAAUCGCGUGGAUAUGGCACGCAAGUUUCUACCGGGCACCGUAAAUGUCCGACUGGAGCCGUUCGGGCGGCUAUAAACAGACCUCAGGCCCGAAGCGUGGCGGCACCUGCCGCCGGUGGUAAAAAAGAUCGGAAGAGCACACGUCU,1.06
16,GGGUCGAUAGCGGAUAAUCGCGUGGAUAUGGCACGCAAGUUUCUACCGGGCACCGUAAAUGUCCGACUGGAGCCGUUCGGGCGGCUAUAAACAGACCUCAGGCCCGAAGCGUGGCGGCACCUGCCGCCGGUGGUAAAAAAGAUCGGAAGAGCACACGUCU,1.18
17,GGGUCGAUAGCGAAUAAUCGCGUGGAUAUGGCACGCAAGUUUCUACCGGGCACCGUAAAUGUCCGACUGGAGCCGUUCGGGCGGCUAUAAACAGACCUCAGGCCCGAAGCGUGGCGGCACCUGCCGCCGGUGGUAAAAAAGAUCGGAAGAGCACACGUCU,1.27
18,GGGUCGAUAGCGUAUAAUCGCGUGGAUAUGGCACGCAAGUUUCUACCGGGCACCGUAAAUGUCCGACUGGAGCCGUUCGGGCGGCUAUAAACAGACCUCAGGCCCGAAGCGUGGCGGCACCUGCCGCCGGUGGUAAAAAAGAUCGGAAGAGCACACGUCU,1.1
